One experiment concerns the target T1, APC232-AA.
T1 chain: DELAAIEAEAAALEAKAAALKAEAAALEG
The experiment can be described thus: two-hybrid library CCmax.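 Note: natural log of median RNA to DNA barcode read ratio; higher means stronger binding.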 The settings on record: mean of both orientations.

Another experiment deals with T2, 4H3330-AA.
T2 chain: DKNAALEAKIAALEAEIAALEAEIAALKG
In words: two-hybrid library CCmax.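 Note: natural log of median RNA to DNA barcode read ratio; higher means stronger binding.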 The settings on record: mean of both orientations.

The next experiment has as its target T3, APC1434-AA.
T3 chain: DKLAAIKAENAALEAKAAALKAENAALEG
In words: two-hybrid library CCmax.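 Note: natural log of median RNA to DNA barcode read ratio; higher means stronger binding.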 The settings on record: mean of both orientations.

The target in the next experiment is T4, APC8191-AA.
T4 chain: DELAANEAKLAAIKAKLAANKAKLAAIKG
In words: two-hybrid library CCmax.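 Note: natural log of median RNA to DNA barcode read ratio; higher means stronger binding.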 The settings on record: mean of both orientations.

For the next experiment, the target named is T5, APC1015-AA.
T5 chain: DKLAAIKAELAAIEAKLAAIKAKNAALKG
In words: two-hybrid library CCmax.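 Note: natural log of median RNA to DNA barcode read ratio; higher means stronger binding.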 The note with it: mean of both orientations.

For another experiment, the target named is T6, 4H733-AA.
T6 chain: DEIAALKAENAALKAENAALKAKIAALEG
The experiment can be described thus: two-hybrid library CCmax.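 Note: natural log of median RNA to DNA barcode read ratio; higher means stronger binding.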 The note with it: mean of both orientations.

For a further experiment, the target named is T7, 4H2458-AA.
T7 chain: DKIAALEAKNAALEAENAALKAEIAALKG
In words: two-hybrid library CCmax. The settings on record: mean of both orientations.

Another experiment deals with T8, APC3645-AA.
T8 chain: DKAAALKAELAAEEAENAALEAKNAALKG
The experiment can be described thus: two-hybrid library CCmax. The note with it: mean of both orientations.

A further experiment has as its target T9, APC6108-AA.
T9 chain: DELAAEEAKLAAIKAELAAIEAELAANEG
The experiment can be described thus: two-hybrid library CCmax. The note with it: mean of both orientations.

The target of the next experiment is T10, APC4436-AA.
T10 chain: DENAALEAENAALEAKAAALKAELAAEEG
In words: two-hybrid library CCmax. The note with it: mean of both orientations.

The target in another experiment is T11, APC9319-AA.
T11 chain: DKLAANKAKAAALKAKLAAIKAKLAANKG
In words: two-hybrid library CCmax. The note with it: mean of both orientations.

A further experiment deals with T12, 4H2290-AA.
T12 chain: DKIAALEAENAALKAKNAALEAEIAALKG
In words: two-hybrid library CCmax.

In a further experiment the target is T13, 4H2447-AA.
T13 chain: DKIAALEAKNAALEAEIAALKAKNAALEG
In words: two-hybrid library CCmax. The note with it: mean of both orientations.

Another experiment has as its target T14, APC2237-AA.
T14 chain: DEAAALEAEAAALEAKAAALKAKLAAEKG
In words: two-hybrid library CCmax. The settings on record: mean of both orientations.

In another experiment the target is T15, APC7099-AA.
T15 chain: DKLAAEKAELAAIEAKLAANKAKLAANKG
In words: two-hybrid library CCmax. The settings on record: mean of both orientations.

A further experiment deals with T16, APC8910-AA.
T16 chain: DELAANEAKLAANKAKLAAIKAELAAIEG
The experiment can be described thus: two-hybrid library CCmax. The note with it: mean of both orientations.

In another experiment the target is T17, 4H716-AA.
T17 chain: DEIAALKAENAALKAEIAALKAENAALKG
In words: two-hybrid library CCmax. The note with it: mean of both orientations.

A further experiment concerns the target T18, APC4264-AA.
T18 chain: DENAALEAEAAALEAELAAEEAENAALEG
In words: two-hybrid library CCmax. The note with it: mean of both orientations.

Another experiment concerns the target T19, 4H807-AA.
T19 chain: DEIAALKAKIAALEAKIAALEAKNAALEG
The experiment can be described thus: two-hybrid library CCmax. The note with it: mean of both orientations.

The target in another experiment is T20, APC2405-AA.
T20 chain: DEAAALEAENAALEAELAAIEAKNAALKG
The experiment can be described thus: two-hybrid library CCmax. The settings on record: mean of both orientations.

Another experiment concerns the target T21, APC4011-AA.
T21 chain: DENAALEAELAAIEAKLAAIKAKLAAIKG
The experiment can be described thus: two-hybrid library CCmax. The note with it: mean of both orientations.

The next experiment deals with T22, APC5383-AA.
T22 chain: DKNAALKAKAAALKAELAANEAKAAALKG
The experiment can be described thus: two-hybrid library CCmax. The settings on record: mean of both orientations.

A further experiment has as its target T23, APC9096-AA.
T23 chain: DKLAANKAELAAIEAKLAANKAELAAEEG
The experiment can be described thus: two-hybrid library CCmax. The settings on record: mean of both orientations.

The target of another experiment is T24, O3-bS.
T24 chain: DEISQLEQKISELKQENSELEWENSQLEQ
The experiment can be described thus: two-hybrid library CCNG1.

The target of another experiment is T25, O4-bS.
T25 chain: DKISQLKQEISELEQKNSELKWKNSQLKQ
The experiment can be described thus: two-hybrid library CCNG1.

For another experiment, the target named is T26, O14-bS.
T26 chain: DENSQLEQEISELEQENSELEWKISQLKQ
The experiment can be described thus: two-hybrid library CCNG1.

For the next experiment, the target named is T27, O16-bS.
T27 chain: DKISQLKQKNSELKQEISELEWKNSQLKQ
The experiment can be described thus: two-hybrid library CCNG1.

Another experiment has as its target T28, O7-bS.
T28 chain: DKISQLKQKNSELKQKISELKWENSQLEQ
The experiment can be described thus: two-hybrid library CCNG1.

For the next experiment, the target named is T29, O6-bS.
T29 chain: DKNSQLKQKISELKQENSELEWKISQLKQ
In words: two-hybrid library CCNG1.

The next experiment deals with T30, O2-bS.
T30 chain: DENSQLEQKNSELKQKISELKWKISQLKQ
In words: two-hybrid library CCNG1.

In another experiment the target is T31, O5-bS.
T31 chain: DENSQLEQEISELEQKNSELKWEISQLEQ
In words: two-hybrid library CCNG1.

A further experiment addresses T32, O8-bS.
T32 chain: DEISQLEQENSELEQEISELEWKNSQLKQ
In words: two-hybrid library CCNG1.

Another experiment addresses T33, P8A-bN.
T33 chain: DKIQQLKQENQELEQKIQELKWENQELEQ
In words: two-hybrid library CCNG1.

In a further experiment the target is T34, 4H175-AA.
T34 chain: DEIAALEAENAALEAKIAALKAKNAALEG
The experiment can be described thus: two-hybrid library CCmax.

Another experiment has as its target T35, 4H3664-AA.
T35 chain: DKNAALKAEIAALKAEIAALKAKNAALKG
In words: two-hybrid library CCmax. The settings on record: mean of both orientations.

Another experiment has as its target T36, 4H2935-AA.
T36 chain: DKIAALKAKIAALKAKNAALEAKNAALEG
The experiment can be described thus: two-hybrid library CCmax. The settings on record: mean of both orientations.

The next experiment concerns the target T37, 4H2238-AA.
T37 chain: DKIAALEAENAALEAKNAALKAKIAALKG
The experiment can be described thus: two-hybrid library CCmax. The settings on record: mean of both orientations.

A further experiment concerns the target T38, 4H481-AA.
T38 chain: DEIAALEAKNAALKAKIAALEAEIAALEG
The experiment can be described thus: two-hybrid library CCmax. The settings on record: mean of both orientations.

The target in the next experiment is T39, 4H662-AA.
T39 chain: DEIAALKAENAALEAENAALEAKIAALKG
The experiment can be described thus: two-hybrid library CCmax. The note with it: mean of both orientations.

Another experiment addresses T40, 4H55-AA.
T40 chain: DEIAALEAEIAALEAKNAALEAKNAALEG
In words: two-hybrid library CCmax.

The next experiment has as its target T41, 4H327-AA.
T41 chain: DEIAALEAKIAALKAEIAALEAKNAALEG
In words: two-hybrid library CCmax. The settings on record: mean of both orientations.

The target of a further experiment is T42, 4H2608-AA.
T42 chain: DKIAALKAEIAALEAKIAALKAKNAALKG
The experiment can be described thus: two-hybrid library CCmax. The note with it: mean of both orientations.

Another experiment deals with T43, 4H3605-AA.
T43 chain: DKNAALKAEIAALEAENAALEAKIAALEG
In words: two-hybrid library CCmax. The note with it: mean of both orientations.

The next experiment deals with T44, 4H4033-AA.
T44 chain: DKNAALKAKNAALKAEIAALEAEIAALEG
In words: two-hybrid library CCmax. The settings on record: mean of both orientations.

The target of the next experiment is T45, 4H2536-AA.
T45 chain: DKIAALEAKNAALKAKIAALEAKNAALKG
In words: two-hybrid library CCmax. The note with it: mean of both orientations.

The next experiment deals with T46, 4H2726-AA.
T46 chain: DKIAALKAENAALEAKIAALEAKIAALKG
The experiment can be described thus: two-hybrid library CCmax. The note with it: mean of both orientations.

The target of the next experiment is T47, 4H369-AA.
T47 chain: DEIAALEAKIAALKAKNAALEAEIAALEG
In words: two-hybrid library CCmax. The note with it: mean of both orientations.

The next experiment addresses T48, 4H2211-AA.
T48 chain: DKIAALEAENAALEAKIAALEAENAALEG
In words: two-hybrid library CCmax. The note with it: mean of both orientations.

A further experiment has as its target T49, 4H2513-AA.
T49 chain: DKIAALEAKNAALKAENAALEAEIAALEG
The experiment can be described thus: two-hybrid library CCmax. The settings on record: mean of both orientations.

Another experiment concerns the target T50, 4H3922-AA.
T50 chain: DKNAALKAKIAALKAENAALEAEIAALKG
The experiment can be described thus: two-hybrid library CCmax. The settings on record: mean of both orientations.

Another experiment addresses T51, 4H3625-AA.
T51 chain: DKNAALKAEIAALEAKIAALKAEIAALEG
In words: two-hybrid library CCmax. The settings on record: mean of both orientations.

In another experiment the target is T52, 4H2614-AA.
T52 chain: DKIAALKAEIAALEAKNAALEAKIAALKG
The experiment can be described thus: two-hybrid library CCmax. The note with it: mean of both orientations.

The target in the next experiment is T53, 4H1405-AA.
T53 chain: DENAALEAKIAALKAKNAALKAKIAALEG
In words: two-hybrid library CCmax.

Consider DKIAALEAENAALKAKNAALEAEIAALKG [4H2290-AA], for which the interaction score in the experiment with APC232-AA is -1.33; with 4H3330-AA it was -1.24; with APC1434-AA, -1.4; with APC8191-AA it was -1.64; in the experiment with APC1015-AA it was -1.41; in the experiment with 4H733-AA, -1.79. For the same molecule, the interaction score with 4H2458-AA is -1.34; with APC3645-AA, -1.44; in the experiment with APC6108-AA, -1.54; in the experiment with APC4436-AA, -1.53; in the experiment with APC9319-AA, -1.68; in the experiment with 4H2290-AA it was 2. The interaction score in the experiment with 4H2447-AA was -1.32; with APC2237-AA, -1.58; with APC7099-AA, -1.57; with APC8910-AA it was -1.59; with 4H716-AA it was -1.57; with APC4264-AA, -1.33. The interaction score was -1.62 with 4H807-AA; -1.42 with APC2405-AA; -1.59 in the experiment with APC4011-AA; -1.86 with APC5383-AA; -1.24 in the experiment with APC9096-AA.

Take DENSQLEQEISELEQENSELEWKISQLKQ [O14-bS]: the interaction score in the experiment with O3-bS was -0.0513; with O4-bS it was 0.126; with O14-bS, -1.18; with O16-bS it was 0.936; in the experiment with O7-bS it was -0.1; in the experiment with O6-bS it was 0.332. The interaction score with O2-bS was -1.15; in the experiment with O5-bS, -0.394; with O8-bS, -2.39; with P8A-bN, -0.473.

In the case of DENAALEAKIAALKAKNAALKAKIAALEG [4H1405-AA], the interaction score with 4H175-AA is 1.87; with 4H3664-AA it was -1.67; with 4H2935-AA, -1.84; with 4H2238-AA it was -1.22; in the experiment with 4H481-AA it was -0.893; with 4H662-AA, 0.709. For the same molecule, the interaction score is -1.42 with 4H55-AA; -1.19 with 4H327-AA; -0.735 in the experiment with 4H2608-AA; 2.26 in the experiment with 4H3605-AA; -0.407 with 4H4033-AA; -1.01 in the experiment with 4H2536-AA. Besides, the interaction score was 0.87 with 4H2726-AA; -0.585 with 4H369-AA; 1.88 with 4H2211-AA; -1.52 in the experiment with 4H2513-AA; 0.997 in the experiment with 4H3922-AA; -1.11 with 4H3625-AA. For the same molecule, the interaction score with 4H2614-AA is 1.52; in the experiment with 4H1405-AA it was -1.08.

The record behind these values is PMC10397247.
